Results on four molecules are retold here after patent US20100329980A1 (GENE TECHNO SCIENCE, published 2010).

Ends that are not written are not given here.

The target of experiment [1] is T1, Human α9 integrin sequence … (SEQ ID NO: 86) (human, coupled to a cellulose membrane via C6-spacer and 2 βAla residues).
T1 construct: Spots were twelve-residue peptides offset by three residues
The experiment in a line: peptide spot membrane, peroxidase-labelled antibody, ECL. The procedure:
(§1) Twelve-residue polypeptides, starting from N-terminal of human α9 integrin and every three residues thereafter (i.e., amino acid residues 1-12, 4-15, 7-18, and so forth) were prepared and coupled to a cellulose membrane via C6-spacer and 2 βAla residues at 5 nmol/spot. The membrane was blocked with a blocking buffer (milk/0.05% Tween20 in PBS) and reacted with 10 ml of solution containing 1.0 μg/ml of each of the anti-human α9 integrin monoclonal antibodies (i.e., 1K11, 21C5, 24I11 and 25 B6, respectively) labeled with peroxidase for three hours at room temperature. After washing with T-TBS, the membrane was reacted with enhanced chemiluminescence (ECL) detecting reagent for 1 minute at room temperature. The luminescence emitted as a result of the enzymatic reaction is measured and epitopes of the antibodies were determined based on the luminescence intensities. As a control, Y9A2 (see Wang et al., 1996, Am J Respir Cell Mol Biol 15, 664-672), a commercially available monoclonal antibody against human α9 integrin, was used.

The target of experiment [2] is T2, Human α9 integrin sequence RHYVAHVKRRVQDVISPI (SEQ ID NO: 87) (human, also: coupled to cellulose membrane via C6-spacer and 2 βAla, end not given here).
T2 construct: Spots were twelve-residue peptides offset by three residues
T2 peptide: RHYVAHVKRRVQDVISPI
The experiment is described as above. The protocol:
as §1

For experiment [3], the target named is T3, Human α9 integrin sequence GFCYIIPSNLQAKGRTLI (SEQ ID NO: 81) (human, also: coupled to cellulose membrane via C6-spacer and 2 βAla, end not given here).
T3 construct: Spots were twelve-residue peptides offset by three residues
T3 peptide: GFCYIIPSNLQAKGRTLI
The experiment is described as above. The protocol: as §1

In experiment [4] the target is T4, Human α9 integrin sequence VIMNRRYTYLGYAVT (SEQ ID NO: 83) (human, also: coupled to cellulose membrane via C6-spacer and 2 βAla, end not given here).
T4 construct: Spots were twelve-residue peptides offset by three residues
T4 peptide: VIMNRRYTYLGYAVT
The description is as above. The protocol: as §1

For experiment [5], the target named is T5, Human α9 integrin sequence CAHRWKNIYYEADHI (SEQ ID NO: 80) (human, also: coupled to cellulose membrane via C6-spacer and 2 βAla, end not given here).
T5 construct: Spots were twelve-residue peptides offset by three residues
T5 peptide: CAHRWKNIYYEADHI
The experiment is described as above. The protocol:
as §1

In experiment [6] the target is T6, Human α9 integrin sequence … (SEQ ID NO: 79) (human, coupled to a cellulose membrane via C6-spacer and 2 βAla residues).
T6 construct: Spots were twelve-residue peptides offset by three residues
The description is as above. The protocol: as §1

For experiment [7], the target named is T7, Human α9 integrin sequence VMGAPGSFYWAGTIKVLN (SEQ ID NO: 82) (human, also: coupled to cellulose membrane via C6-spacer and 2 βAla, end not given here).
T7 construct: Spots were twelve-residue peptides offset by three residues
T7 peptide: VMGAPGSFYWAGTIKVLN
The description is as above. The procedure: as §1

The target of experiment [8] is T8, Human α9 integrin sequence SSSVIQFMSRAKVKVDPALRV (SEQ ID NO: 91) (human, coupled to a cellulose membrane via C6-spacer and 2 βAla residues).
T8 construct: Spots were twelve-residue peptides offset by three residues
T8 peptide: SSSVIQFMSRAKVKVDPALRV
The experiment is described as above. The protocol:
as §1

In experiment [9] the target is T9, Human α9 integrin sequence QYSMKLSGQKINPVLRMFGQSISG (SEQ ID NO: 85) (human, coupled to a cellulose membrane via C6-spacer and 2 βAla residues).
T9 construct: Spots were twelve-residue peptides offset by three residues
T9 peptide: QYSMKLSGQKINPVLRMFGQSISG
Described as above. The procedure: as §1

Experiment [10] addresses T10, Human α9 integrin sequence KSPGAVFKCRVHTNPDRR (SEQ ID NO: 78) (human, also: coupled to cellulose membrane via C6-spacer and 2 βAla, end not given here).
T10 construct: Spots were twelve-residue peptides offset by three residues
T10 peptide: KSPGAVFKCRVHTNPDRR
Described as above. The protocol: as §1

The target of experiment [11] is T11, Human α9 integrin sequence CSVGFPFMRSKSKYEFSV (SEQ ID NO: 90) (human, also: coupled to cellulose membrane via C6-spacer and 2 βAla, end not given here).
T11 construct: Spots were twelve-residue peptides offset by three residues
T11 peptide: CSVGFPFMRSKSKYEFSV
The description is as above. The protocol:
as §1

The target in experiment [12] is T12, Human α9 integrin sequence … (SEQ ID NO: 84) (human, coupled to a cellulose membrane via C6-spacer and 2 βAla residues).
T12 construct: Spots were twelve-residue peptides offset by three residues
Described as above. The protocol:
as §1

For experiment [13], the target named is T13, Human α9 integrin sequence YLALGAVKNISL (SEQ ID NO: 89) (human, also: coupled to cellulose membrane via C6-spacer and 2 βAla (end not given here)).
T13 construct: Spots were twelve-residue peptides offset by three residues
T13 peptide: YLALGAVKNISL
The description is as above. The protocol: as §1

Experiment [14] has as its target T14, human α4 integrin (human, UniProt P13612 34-1032).
T14 construct: whole, on cells; also called Human α4/CHO-K1 cells; CHO K1 cells expressing human α4 integrin
T14 sequence (looked up): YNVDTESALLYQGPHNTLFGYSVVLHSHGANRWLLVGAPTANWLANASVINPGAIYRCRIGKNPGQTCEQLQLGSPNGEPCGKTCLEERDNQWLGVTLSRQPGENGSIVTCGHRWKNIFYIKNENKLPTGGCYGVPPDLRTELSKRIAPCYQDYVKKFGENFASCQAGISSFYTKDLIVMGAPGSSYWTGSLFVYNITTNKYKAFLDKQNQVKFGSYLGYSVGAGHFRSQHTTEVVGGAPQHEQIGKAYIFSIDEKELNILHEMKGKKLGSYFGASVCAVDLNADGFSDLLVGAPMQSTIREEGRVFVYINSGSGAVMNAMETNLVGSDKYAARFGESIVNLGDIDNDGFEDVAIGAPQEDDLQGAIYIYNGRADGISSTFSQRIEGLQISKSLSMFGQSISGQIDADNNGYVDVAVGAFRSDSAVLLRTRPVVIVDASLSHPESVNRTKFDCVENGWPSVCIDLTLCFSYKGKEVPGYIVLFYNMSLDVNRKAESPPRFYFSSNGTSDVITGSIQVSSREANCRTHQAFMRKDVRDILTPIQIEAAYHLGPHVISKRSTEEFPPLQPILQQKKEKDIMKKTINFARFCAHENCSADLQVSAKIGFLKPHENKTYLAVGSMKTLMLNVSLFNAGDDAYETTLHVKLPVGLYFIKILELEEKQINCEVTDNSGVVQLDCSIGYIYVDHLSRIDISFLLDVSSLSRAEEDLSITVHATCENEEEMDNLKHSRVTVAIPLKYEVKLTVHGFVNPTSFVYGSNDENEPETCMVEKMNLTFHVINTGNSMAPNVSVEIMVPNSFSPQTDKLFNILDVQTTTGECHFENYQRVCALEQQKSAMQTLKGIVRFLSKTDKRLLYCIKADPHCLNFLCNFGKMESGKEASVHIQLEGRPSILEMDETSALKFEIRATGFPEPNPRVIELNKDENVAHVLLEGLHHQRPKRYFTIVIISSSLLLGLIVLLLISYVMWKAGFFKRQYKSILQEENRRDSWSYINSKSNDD
Briefly: hybridoma screening on transfected CHO-K1 cells.

Experiment [15] has as its target T14, human α4 integrin. Briefly: FACS, FITC-labeled anti-mouse IgG secondary. The procedure:
Whether the anti-human α9 integrin antibodies were usable for FACS was examined using Human α9/CHO-K1 cells, CHO-K1 cells and human neutrophils endogenously expressing the α9 integrin. In human neutrophils, FACS analysis was conducted at the cell count of 1.0×10⁵ and antibodies were reacted on ice. Non-specific reaction with the Fc receptor was blocked with 50% goat serum. FITC-labeled anti-mouse IgG antibody was used as a secondary antibody. As a result (see FIGS. 20a, 20b and 20c), all of the anti-human α9 integrin antibodies could detect the α9 integrin on Human α9/CHO-K1 and human neutrophils. None of the antibodies reacted with Human α4/CHO-K1 cells (see FIGS. 20a, 20b and 20c).
On the technique in general: In flow cytometry, cells or beads pass a laser one at a time.

B1: 1K11 mouse anti-human α9 integrin monoclonal antibody (FERM BP-10510) (antibody, mouse IgG1, V domains shown)
VH: VQLQESGPELVKPGASVKIPCKASGYTFTDYNMDWVKQSHGKSLEWIGDINPNNGGTIYNQKFQGKATLTVDKSSSTAYMELRSLTSEDTAVYYCARSGVISTDYWGQGTTVTVSS
VL: DIQMTQSPPSLSASLGERVSLTCRASQEISGYLIWLQQKPDGTIQRLIYAASTLDSGVPKRFSGSRSGSDYSLTISSLESEDFADYYCLQYANYPPTFGGGTKLEIKR
notes: Mouse IgG1 from hybridoma
B1: the binding result in experiment [1], in experiment [2], in experiment [3], in experiment [4], in experiment [5] and in experiment [6] was “binds” in each case. For the same molecule, the binding result in experiment [7], in experiment [8], in [9], in [10], in experiment [11] and in experiment [12] was “binds” in each case. In addition, the binding result was “binds” in experiment [13] and “no binding” with human α4 integrin [14].

B2: 24I11 mouse anti-human α9 integrin monoclonal antibody (FERM BP-10512) (antibody, mouse IgG1, V domains shown)
VH: EVQLQQSGAELVKPGASVKLSCTASGFNIKDTYVHWVKQRPEQGLEWIGNIDPANGNTKYDPKFQGKATITADTSSNTAYLHLSSLTSEDTAVYYCARWLRHFYYAMDYWGQGTSVTVSS
VL: DIQMTQSPASLAASVGETVTITCRASENIYYSLAWYQQKQGKSPQLLIYNANSLEDGVPSRFSGSGSGTQYSMKINSMQPEDTATYFCKQAYDVPYTFGGGTKLEIK
notes: Mouse IgG1/kappa from hybridoma; also called mouse 24I11
Consider B2, for which the binding result in experiment [2], in experiment [3], in [4], in [5], in [6] and in experiment [7] was “binds” throughout. In addition, the binding result in [8] is given as “binds”; in experiment [10], “binds”; in experiment [11], “binds”; in [12], “binds”; with human α4 integrin [15], “no binding”.

B3: 21C5 mouse anti-human α9 integrin monoclonal antibody (FERM BP-10511) (antibody, mouse IgG1, V domains shown)
VH: VQLQESGGGLVKPGGSLKLSCAASGFTFSDYYMYWVRQTPEKRLEWVATISDGGNYTYYPDSVKGRFTISRDNAKNNLYLQMSSLKSEDTAMYYCARDRDGSSLFAYWGQGTTVTVSS
VL: KFMSTSVGDRVSITCKASQDVNIAVAWYQQRPGQSPKLLIYWASTRHTGVPDRFTGSGSGTDYTLTISSVQAEDLALYYCQQHYNTPWTFGGGTKLEIKR
notes: Mouse IgG1 from hybridoma; cloned with degenerate primers
With B3, the binding result in the experiment with human α4 integrin [14] was “no binding”.

B4: 28S1 mouse anti-human α9 integrin monoclonal antibody (FERM BP-10832) (antibody, mouse IgG1, V domains shown)
VH: VKLQESGPGLVAPSQSLSITCTVSGFSLTGYGVNWVRQPPGKGLEWLGMIWGDGITEYNSALKSRLSISKDNSKSQVFLKMNSLQTDDTARYYCARDASSGYGFAYWGQGTTVTVSS
VL: YIVLTQSPAIMSASLGERVTMTCTASSSVSSSYLHWYQQKPGSSPKLWIYSTSNLASGVPARFSGSGSGTSYSLTISSMEAEDAATYYCHQYHRSPYTFGGGTKLEIKR
notes: Mouse IgG1 from hybridoma
As for B4, the binding result with human α4 integrin [15] was “no binding”.
